T1: UBXD1-PUB (150-264) (human, UniProt Q9BZV1 150-264)
T1 construct: UBXD1 (UBXN6), human, PUB domain, residues 150-264; also called His6-UBXD1-PUB; source: E. coli Rosetta2, purified (Ni-NTA, thrombin cleavage, SEC); unlabelled or 15N-labelled; not shown: His6, N-terminal, cleaved
T1 sequence (looked up): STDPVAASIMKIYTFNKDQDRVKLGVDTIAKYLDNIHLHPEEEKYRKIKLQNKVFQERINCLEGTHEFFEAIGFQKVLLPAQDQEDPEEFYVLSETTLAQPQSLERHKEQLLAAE

T2: UBXD1-PUB (150–264) (human, UniProt Q9BZV1 150-264)
T2 construct: UBXD1 (UBXN6), human, PUB domain, residues 150-264; 15N-labelled for some NMR titrations; also called isolated PUB domain; His-UBXD1-PUB; source: E. coli Rosetta2, purified (Ni-NTA, thrombin cleavage, SEC); not shown: His6, N-terminal, cleaved
T2 sequence (looked up): T1 sequence (looked up)

T3: UBXD1 (1–441), recombinant, purified (human, UniProt Q9BZV1 1-441)
T3 construct: also called UBXD1-wt; UBXD1-fl; not shown: GST, N-terminal, cleaved
T3 sequence (looked up): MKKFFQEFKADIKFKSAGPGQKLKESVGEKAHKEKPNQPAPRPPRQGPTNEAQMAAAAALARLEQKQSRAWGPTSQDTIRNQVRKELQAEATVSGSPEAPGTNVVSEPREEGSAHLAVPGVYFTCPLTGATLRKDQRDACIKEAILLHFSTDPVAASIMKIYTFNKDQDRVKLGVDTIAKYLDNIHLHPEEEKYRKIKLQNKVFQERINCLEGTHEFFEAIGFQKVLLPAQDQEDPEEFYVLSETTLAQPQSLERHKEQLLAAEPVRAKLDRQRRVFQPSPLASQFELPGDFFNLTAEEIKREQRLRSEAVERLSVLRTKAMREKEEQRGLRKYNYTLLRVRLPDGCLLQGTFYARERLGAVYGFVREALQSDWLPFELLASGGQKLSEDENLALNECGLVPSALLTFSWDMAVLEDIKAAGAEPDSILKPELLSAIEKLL

B1: HR23b-UBL (1-78) (domain or fragment)
chain: not shown
notes: also called HR23b-UBL wt; 15N-HR23b-UBL; source: unlabelled or 15N-labelled; not shown: GST, N-terminal, cleaved
B2: HR23b-UBL (domain or fragment)
chain: not shown
notes: HR23b (RAD23B), UBL domain; The cited NMR structure of the HR23b-UBL domain is PDB 1P1A; 15N-labelled for the reverse titration; also called HR23b-UBL wt; UBL domain of HR23b; not shown: GST, N-terminal, cleaved
B3: UBXD1-wt (1-441) (natural protein, human, UniProt Q9BZV1 1-441, looked up)
chain: T3 sequence (looked up)
notes: also called UBXD1-fl; UBXN6; not shown: GST, N-terminal, cleaved
B4: UBXD1-His E368A/D373A (natural protein, human, UniProt Q9BZV1 1-441, looked up)
chain: T3 sequence (looked up) with E368A, D373A
notes: the mutant's name is printed in four ways; not shown: GST, N-terminal, cleaved
B5: UBXD1 E368A/D373A (full length, recombinant) (natural protein, human, UniProt Q9BZV1 1-441, looked up)
chain: T3 sequence (looked up) with E368A, D373A
notes: UBXD1 (UBXN6), human, mutant in the context of recombinant UBXD1-fl
B6: UBXD1-ΔUBX-C (1-332), Atto594-labelled (domain or fragment, human, UniProt Q9BZV1 1-332, looked up)
chain: MKKFFQEFKADIKFKSAGPGQKLKESVGEKAHKEKPNQPAPRPPRQGPTNEAQMAAAAALARLEQKQSRAWGPTSQDTIRNQVRKELQAEATVSGSPEAPGTNVVSEPREEGSAHLAVPGVYFTCPLTGATLRKDQRDACIKEAILLHFSTDPVAASIMKIYTFNKDQDRVKLGVDTIAKYLDNIHLHPEEEKYRKIKLQNKVFQERINCLEGTHEFFEAIGFQKVLLPAQDQEDPEEFYVLSETTLAQPQSLERHKEQLLAAEPVRAKLDRQRRVFQPSPLASQFELPGDFFNLTAEEIKREQRLRSEAVERLSVLRTKAMREKEEQRGLR
modifications: Atto594 (NHS ester labelling)
notes: the methods say that the UBXD1 proteins were labelled with Atto594-NHS ester for anisotropy; not shown: GST, N-terminal, cleaved
B7: UBXD1-N (1–133) (domain or fragment, human, UniProt Q9BZV1 1-133, looked up)
chain: MKKFFQEFKADIKFKSAGPGQKLKESVGEKAHKEKPNQPAPRPPRQGPTNEAQMAAAAALARLEQKQSRAWGPTSQDTIRNQVRKELQAEATVSGSPEAPGTNVVSEPREEGSAHLAVPGVYFTCPLTGATLR
modifications: Atto594 (NHS ester; the UBXD1 proteins were labeled for anisotropy)
notes: UBXD1 (UBXN6), human, N-terminus, residues 1-133; The construct is not described on its own in the methods; limits from the results; also called UBXD1 N-terminus; not shown: GST, N-terminal, cleaved

Holding throughout (settings): both partners purified
One assay has as its target T1, UBXD1-PUB (150-264). In words: NMR titration; 1H-15N-HSQC of 15N-HR23b-UBL (200 µM), UBXD1-PUB added stepwise to 400 µM; 50 mM sodium potassium phosphate, pH 7.5, 25 °C.
Another assay addresses T2, UBXD1-PUB (150–264). In words: NMR titration; 1H-15N-HSQC: 15N-UBXD1-PUB (400 µM) with HR23b-UBL (0 to 1300 µM), and the reverse titration of 15N-HR23b-UBL with UBXD1-PUB; 25 °C.
In assay [1] the target is T4, p97 wild type (1-806) (UniProt P55072 1-806).
T4 construct: p97/VCP, residues 1-806; also called p97-wt; p97-fl; source: E. coli BL21 DE3 (T1r), purified (Ni-NTA, anion exchange)
The experiment in a line: fluorescence polarisation; displacement titration: UBXD1 incubated with 0.1 µM 5,6-FAM-p97-C10 peptide to 50% saturation, concentration of p97 successively increased; competitive binding model; 50 mM NaKPi buffer, pH 7.5, 25 °C.

The target in a further assay is T5, Ubiquitin-GST (UniProt P0CG48 1-76).
T5 construct: ubiquitin fused at its C-terminus to GST; also called Ub-GST; source: E. coli BL21 DE3 (T1r), purified; not shown: GST, C-terminal, kept
In words: pull-down; screening pulldown: 25 µM Ubiquitin-GST, 1 µM p97 (hexamer) and UBXD1 variant with GSH beads, 30 min, 4 °C, IP buffer; Coomassie stain.

The target of assay [2] is T6, ubiquitin-GST fusion protein (Ub-GST) (UniProt P0CG48 1-76).
T6 construct: source: E. coli BL21 DE3 (T1r), purified
The experiment in a line: pull-down; 50 μM ubiquitin-GST, 2.5 μM p97 (hexamer) and 5 μM UBXD1 variant with GSH beads, 30 min, 4 °C, 50 mM Tris pH 7.4, 150 mM KCl, 1% Triton-X-100.

The target in assay [3] is T4, p97 wild type (1-806). The experiment in a line: fluorescence polarisation; fluorescence anisotropy titration of Atto594-labelled UBXD1 construct with p97 construct; 50 mM NaKPi buffer, pH 7.5, 25 °C; fitted with the stoichiometry 1:1. For orientation: Fluorescence polarisation rises when a labelled molecule tumbles more slowly, as on binding a larger partner.
The assay “UBXD1-wt (1-441)” concerns the target B3. In words: fluorescence polarisation; displacement titration: UBXD1 incubated with 0.1 µM 5,6-FAM-p97-C10 peptide to 50% saturation, concentration of p97 successively increased; competitive binding model; 50 mM NaKPi buffer, pH 7.5, 25 °C.
Assay [4] addresses T3, UBXD1 (1–441), recombinant, purified. In words: fluorescence polarisation; direct anisotropy titration of 5,6-FAM-p97-C10 peptide (0.1 µM in the displacement set-up) with UBXD1.
A further assay deals with T7, p97-N (1–199) (UniProt P55072 1-199).
T7 construct: p97/VCP, N-domain, residues 1-199; also called N-domain of p97; source: E. coli BL21 DE3 (T1r) (pET28a), purified
The experiment in a line: fluorescence polarisation; fluorescence anisotropy; Atto594-labeled UBXD1 proteins, p97 constructs titrated; 50 mM NaKPi pH 7.5, 25 °C; all fitted with stoichiometry n = 1.

Residue numbers refer to the chain shown, from its start. Names may count otherwise. No end group written: not given here.

T4 sequence (P55072 whole entry, the tested form may be a part): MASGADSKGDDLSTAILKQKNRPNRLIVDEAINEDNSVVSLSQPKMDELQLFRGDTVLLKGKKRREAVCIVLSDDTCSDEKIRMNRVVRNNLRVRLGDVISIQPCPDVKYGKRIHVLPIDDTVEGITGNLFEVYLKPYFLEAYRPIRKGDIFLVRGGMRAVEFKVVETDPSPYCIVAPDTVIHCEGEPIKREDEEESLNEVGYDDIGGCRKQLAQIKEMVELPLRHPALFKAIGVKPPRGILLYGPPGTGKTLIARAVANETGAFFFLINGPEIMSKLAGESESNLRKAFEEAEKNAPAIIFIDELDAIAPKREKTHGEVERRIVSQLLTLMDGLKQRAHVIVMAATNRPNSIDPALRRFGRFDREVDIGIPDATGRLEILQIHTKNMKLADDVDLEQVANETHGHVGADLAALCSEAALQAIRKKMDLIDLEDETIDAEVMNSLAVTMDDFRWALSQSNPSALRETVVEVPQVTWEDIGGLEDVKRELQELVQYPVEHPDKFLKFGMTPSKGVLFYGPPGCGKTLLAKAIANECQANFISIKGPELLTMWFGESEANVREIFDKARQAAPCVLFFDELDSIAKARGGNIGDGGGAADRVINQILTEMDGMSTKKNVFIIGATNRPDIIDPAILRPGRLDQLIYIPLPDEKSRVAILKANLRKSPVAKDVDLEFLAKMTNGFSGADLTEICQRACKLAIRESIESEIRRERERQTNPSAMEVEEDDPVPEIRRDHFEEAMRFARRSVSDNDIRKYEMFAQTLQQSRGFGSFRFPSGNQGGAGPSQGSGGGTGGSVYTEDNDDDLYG
T7 sequence (P55072 1-199): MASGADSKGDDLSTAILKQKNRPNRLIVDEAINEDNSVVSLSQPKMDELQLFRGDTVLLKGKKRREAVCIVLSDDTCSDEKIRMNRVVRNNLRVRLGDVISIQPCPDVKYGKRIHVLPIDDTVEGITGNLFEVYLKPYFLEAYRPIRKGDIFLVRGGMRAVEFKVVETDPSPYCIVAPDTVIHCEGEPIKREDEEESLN

Turning to B1, the binding result with UBXD1-PUB (150-264) is on record as “binds”.
B2 gave a Kd in the assay with UBXD1-PUB (150–264) of 1500 ± 900 µM.
B3 registered a dissociation constant Kd in the assay with p97 wild type (1-806) [1] of 1.1 ± 0.1 µM.
As to B4, in the assay with Ubiquitin-GST, the binding result is given as “binds”.
On to B5, for which the binding result in [2] is reported as “binds”.
The molecule B6 yielded a Kd in the assay with p97 wild type (1-806) [3] of 5.5 ± 0.2 µM.
With {5,6‑FAM}-TEDNDDDLYG (p97/VCP C-terminal residues 797-806), the binding result with UBXD1-wt (1-441) is given as “binds”.
For the molecule {5,6‑FAM}-TEDNDDDLYG (p97/VCP, C-terminal residues 797-806), the binding result in assay [4] was “binds”.
B7 registered a Kd with p97-N (1–199) of 22 ± 1 µM.

One may read the Kd as the free concentration of one partner at which half of the binding sites on the other are occupied at equilibrium, for simple one-to-one binding.
